# Laboratory results as given in EP2096121A1 (Institut Pasteur Of Shanghai, dated 2009).
# B1: GPI-scFv (TG15): scFv/hinge/his-tag/DAF, anti-HIV-1 gp41 single-chain Fv derived from human monoclonal antibody TG15, GPI-anchored (scFv)
# scFv: QVQLQQWGAGLLKPSETLSLTCAVYGDSFGGHHWSWIRQPPGKGLEWIGEINFLGNTNYNPSLKSRVAISKDTSKNQFSLTLNSATAADTAVYFCARRETMETASRKRAFDIWGQGTMETVTVSAGGGGSGGGGSGGGGSAELMETTQSPPTLSASVGDRVTITCRASQSLSGWVAWYQQKPGKAPKLLIYKASTLESGVPSRFSGSGSGTVFALTISSLQPDDSATYYCQQHSAFSSTFGQGTKLEIKRTPLGDTTHTSGHHHHHHGSGTTSGTTRLLSGHTCFTLTGLLGTLVTMETGLLT
# Tests used:
# [1] = biological target: HIV-1 envelope pDOL (subtype B) (HIV-1 (subtype B)); assay: cell-based or functional assay
# [2] = biological target: HIV-1 envelope Q168 (subtype A) (HIV-1 (subtype A)); assay: cell-based or functional assay
binder,measurement,setting,value
B1,"relative luciferase activity (RLA), single-cycle pseudotype infectivity, CEMss-GPI-scFv compared to CEMss-eGFP",[1],8 fold reduction
same,"relative luciferase activity (RLA), single-cycle pseudotype infectivity, CEMss-GPI-scFv compared to CEMss-eGFP",[2],180 fold reduction
